Patent publication US20090035321A1, “Intercellular adhesion molecules and their binding ligands” (Boehringer Ingelheim Pharmaceuticals, Inc., published 2009)

How the values were obtained:
ICAM-1 R88V/EA = ICAM-1 R88V/EA (human, UniProt P05362); test: flow, COS cells
ICAM-1 E87/K = ICAM-1 E87/K (human, UniProt P05362); test: flow, COS cells
ICAM-1 E90/K = ICAM-1 E90/K (human, UniProt P05362); test: flow, COS cells
ICAM-1 E254DE/KEK = ICAM-1 E254DE/KEK (human, UniProt P05362); test: flow, COS cells
ICAM-1 R166PQ/EPA = ICAM-1 R166PQ/EPA (human, UniProt P05362); test: flow, COS cells
ICAM-1 V4/G = ICAM-1 V4/G (human, UniProt P05362); test: flow, COS cells
ICAM-1 K128/R = ICAM-1 K128/R (human, UniProt P05362); test: flow, COS cells
ICAM-1 D60/Q = ICAM-1 D60/Q (human, UniProt P05362); test: flow, COS cells
ICAM-1 N118/Q = ICAM-1 N118/Q (human, UniProt P05362); test: flow, COS cells
ICAM-1 Y83/S = ICAM-1 Y83/S (human, UniProt P05362); test: flow, COS cells
ICAM-1 G101K/AN = ICAM-1 G101K/AN (human, UniProt P05362); test: flow, COS cells
ICAM-1 V136GE/GVK = ICAM-1 V136GE/GVK (human, UniProt P05362); test: flow, COS cells
ICAM-1 R125/E = ICAM-1 R125/E (human, UniProt P05362); test: flow, COS cells
[1] = target: ICAM-1 N269QSQI/IQAEQ (human) (UniProt P05362); test: flow, COS cells
ICAM-1 N240DS/KNA = ICAM-1 N240DS/KNA (human, UniProt P05362); test: flow, COS cells
ICAM-1 Y52/FA = ICAM-1 Y52/FA (human, UniProt P05362); test: flow, COS cells
ICAM-1 N56V/HM = ICAM-1 N56V/HM (human, UniProt P05362); test: flow, COS cells
ICAM-1 E90/Q = ICAM-1 E90/Q (human, UniProt P05362); test: flow, COS cells
ICAM-1 Q1/E = ICAM-1 Q1/E (human, UniProt P05362); test: flow, COS cells
ICAM-1 A178/G = ICAM-1 A178/G (human, UniProt P05362); test: flow, COS cells
ICAM-1 D229QR/HLE = ICAM-1 D229QR/HLE (human, UniProt P05362); test: flow, COS cells
ICAM-1 D26QPK/ALPE = ICAM-1 D26QPK/ALPE (human, UniProt P05362); test: flow, COS cells
ICAM-1 S5/T (human) = ICAM-1 S5/T (human) (UniProt P05362); test: flow, COS cells
ICAM-1 Y66/T = ICAM-1 Y66/T (human, UniProt P05362); test: flow, COS cells
ICAM-1 K77T/ES = ICAM-1 K77T/ES (human, UniProt P05362); test: flow, COS cells
ICAM-1 N156/E = ICAM-1 N156/E (human, UniProt P05362); test: flow, COS cells
ICAM-1 E59/Q [2] = target: T1, ICAM-1 E59/Q (human, UniProt P05362); test: flow, COS cells
ICAM-1 Q1T/KA = ICAM-1 Q1T/KA (human, UniProt P05362); test: 35S-HRV14 on COS cells
Description: (§1) COS cells were seeded into 10 cm tissue culture plates such that they would be 50% confluent by 16-24 hrs. COS cells were then washed once with TBS and incubated for 4 hrs with 4 ml RPMI containing 10% Nu sera (Collaborative) 5 pg/ml chloroquine, 3 μg of mutant plasmid and 200 μg/ml DEAE-dextran sulfate. Cells were then washed with 10% DMSO/PBS followed by PBS and cultured 16 hrs in culture media. Culture media was replaced with fresh media and at 48 hrs post transfection (OS cells were suspended by trypsin/EDTA (Gibco) treatment and divided into 2, 10 cm plates as well as 24 well tissue culture plates for HRV binding. At 72 hrs cells were harvested from 10 cm plates with 5 mM EDTA/HBSS and processed for adhesion to LFA-1 coated plastic and immunofluorescence.
(§2) Binding occurred in 1 hr at 35° C. in a 5% CO₂ atmosphere with horizontal rotation (100 rpm). Unbound [³⁵S] HRV14 was aspirated, COS cells were gently washed with 150 ml of HRV buffer and then solubilized with 1% SDS in PBS for scintillation counting.
(§3) In Table 25, the notation for the mutations uses the one-letter code for the wild-type sequence followed by a slash and the one-letter code for the corresponding mutant sequence. The position of the first amino acid within the sequence is indicated. Wild type residues precede the slash followed by the residues they were substituted for in the mutant. COS cells expressing ICAM-1 mutants were tested for adherence to LFA-1 coated plastic and for binding 35S met-labeled HRV14. […] Binding is presented as mean and standard error (SE) for multiple experiments (n). […] The specific linear fluorescence intensity (SLFI) of CL203 for each mutant is normalized to that of wild type CL203 SLFI (% WT) as discussed above. The SLFI of RR1/1, R6.5 and LB-2 SLFI is normalized to the CL203 SLFI of the mutant (% CL203) as described above.

ICAM-1 K8/E = ICAM-1 K8/E (human, UniProt P05362); test: 35S-HRV14 on COS cells
Description: as §1, §2, §3

ICAM-1 R13/E = ICAM-1 R13/E (human, UniProt P05362); test: 35S-HRV14 on COS cells
Description: as §1, §2, §3

ICAM-1 E59/K = ICAM-1 E59/K (human, UniProt P05362); test: 35S-HRV14 on COS cells
Description: as §1, §2, §3

ICAM-1 S61/I = ICAM-1 S61/I (human, UniProt P05362); test: 35S-HRV14 on COS cells
Description: as §1, §2, §3

ICAM-1 A189T/SI = ICAM-1 A189T/SI (human, UniProt P05362); test: 35S-HRV14 on COS cells
Description: as §1, §2, §3

ICAM-1 Q62PM/API = ICAM-1 Q62PM/API (human, UniProt P05362); test: 35S-HRV14 on COS cells
Description: as §1, §2, §3

ICAM-1 D60S/KL = ICAM-1 D60S/KL (human, UniProt P05362); test: 35S-HRV14 on COS cells
Description: as §1, §2, §3

ICAM-1 E59/Q [3] = target: T1, ICAM-1 E59/Q; test: 35S-HRV14 on COS cells
Description: as §1, §2, §3

## monoclonal antibody CL203
ICAM-1 R88V/EA
  SLFI % WT: 113 % WT
ICAM-1 E87/K
  SLFI % WT: 94 % WT
ICAM-1 E90/K
  SLFI % WT: 29 % WT
ICAM-1 E254DE/KEK
  SLFI % WT: 180 % WT
ICAM-1 R166PQ/EPA
  SLFI % WT: 94 % WT
ICAM-1 V4/G
  SLFI % WT: 111 % WT
ICAM-1 K128/R
  SLFI % WT: 190 % WT
ICAM-1 D60/Q
  SLFI % WT: 80 % WT
ICAM-1 N118/Q
  SLFI % WT: 139 % WT
ICAM-1 Y83/S
  SLFI % WT: 125 % WT
ICAM-1 G101K/AN
  SLFI % WT: 142 % WT
ICAM-1 V136GE/GVK
  SLFI % WT: 171 % WT
ICAM-1 R125/E
  SLFI % WT: 145 % WT
[1]
  SLFI % WT: 95 % WT
ICAM-1 N240DS/KNA
  SLFI % WT: 142 % WT
ICAM-1 Y52/FA
  SLFI % WT: 100 % WT
ICAM-1 N56V/HM
  SLFI % WT: 121 % WT
ICAM-1 E90/Q
  SLFI % WT: 152 % WT
ICAM-1 Q1/E
  SLFI % WT: 135 % WT
ICAM-1 A178/G
  SLFI % WT: 304 % WT
ICAM-1 D229QR/HLE
  SLFI % WT: 210 % WT
ICAM-1 D26QPK/ALPE
  SLFI % WT: 126 % WT
ICAM-1 S5/T (human)
  SLFI % WT: 251 % WT
ICAM-1 Y66/T
  SLFI % WT: 144 % WT
ICAM-1 K77T/ES
  SLFI % WT: 151 % WT
ICAM-1 N156/E
  SLFI % WT: 182 % WT
ICAM-1 E59/Q [2]
  SLFI % WT: 195 % WT

B1: human rhinovirus 14 (HRV14) (other)
chain: GAQVSTQKSGSHENQNILTNGSNQTFTVINYYKDAASTSSAGQSLSMDPSKFTEPVKDLMLKGAPALNSPNVEACGYSDRVQQITLGNSTITTQEAANAVVCYAEWPEYLPDVDASDVNKTSKPDTSVCRFYTLDSKTWTTGSKGWCWKLPDALKDMGVFGQNMFFHSLGRSGYTVHVQCNATKFHSGCLLVVVIPEHQLASHEGGNVSVKYTFTHPGERGIDLSSANEVGGPVKDVIYNMNGTLLGNLLIFPHQFINLRTNNTATIVIPYINSVPIDSMTRHNNVSLMVIPIAPLTVPTGATPSLPITVTIAPMCTEFSGIRSKSIVPQGLPTTTLPGSGQFLTTDDRQSPSALPNYEPTPRIHIPGKVHNLLEIIQVDTLIPMNNTHTKDEVNSYLIPLNANRQNEQVFGTNLFIGDGVFKTTLLGEIVQYYTHWSGSLRFSLMYTGPALSSAKLILAYTPPGARGPQDRREAMLGTHVVWDIGLQSTIVMTIPWTSGVQFRYTDPDTYTSAGFLSCWYQTSLILPPETTGQVYLLSFISACPDFKLRLMKDTQTISQTVALTEGLGDELEEVIVEKTKQTVASISSGPKHTQKVPILTANETGATMPVLPSDSIETRTTYMHFNGSETDVECFLGRAACVHVTEIQNKDATGIDNHREAKLFNDWKINLSSLVQLRKKLELFTYVRFDSEYTILATASQPDSANYSSNLVVQAMYVPPGAPNPKEWDDYTWQSASNPSVFFKVGDTSRFSVPYVGLASAYNCFYDGYSHDDAETQYGITVLNHMGSMAFRIVNEHDEHKTLVKIRVYHRAKHVEAWIPRAPRALPYTSIGRTNYPKNTEPVIKKRKGDIKSY
modifications: [35S]-Met labeled
ICAM-1 Q1T/KA
  HRV Binding %: 11 % of wild type
ICAM-1 K8/E
  HRV Binding %: 132 % of wild type
ICAM-1 R13/E
  HRV Binding %: 10 % of wild type
ICAM-1 E59/K
  HRV Binding %: 105 % of wild type
ICAM-1 S61/I
  HRV Binding %: 111 % of wild type
ICAM-1 A189T/SI
  HRV Binding %: 168 % of wild type
ICAM-1 Q62PM/API
  HRV Binding %: 182 % of wild type
ICAM-1 D60S/KL
  HRV Binding %: 1 % of wild type
ICAM-1 E59/Q [3]
  HRV Binding %: 92 % of wild type
